Reference: article PMC10979003 (Nature Communications, 2024)
No end group written: not given here. *: point of attachment. Biotin = O=C1N[C@H]2[C@H](CS[C@H]2CCCCC(=O)*)N1

Biological target: T1, 6xHis tagged BCL-xL (UniProt Q07817-1 2-212)
T1 construct: BCL-xL; The cloning section gives BCL-xL only an N-terminal ULP1-cleavable SMT3 tag; also called self-made 6×His tagged BCL-xL; WT BCL-xL; source: self-made; E. coli BL21 (DE3) codon plus
Assay: AlphaScreen or HTRF; AlphaScreen displacement binding assay: Biotin-Bim or Biotin-Bad (15 nM for WT, 50 nM for mutants), 6xHis BCL-2 (25 nM WT, 50 nM mutants) or BCL-xL (10 nM WT, 50 nM mutants), compounds (753b, WH244) as displacers; anti-6xHis acceptor and streptavidin donor beads; 25 mM HEPES pH 7.5, 150 mM NaCl, 0.1% BSA, 0.005% tween 20; room temperature
Conditions: both partners purified

T1 sequence (Q07817 2-212): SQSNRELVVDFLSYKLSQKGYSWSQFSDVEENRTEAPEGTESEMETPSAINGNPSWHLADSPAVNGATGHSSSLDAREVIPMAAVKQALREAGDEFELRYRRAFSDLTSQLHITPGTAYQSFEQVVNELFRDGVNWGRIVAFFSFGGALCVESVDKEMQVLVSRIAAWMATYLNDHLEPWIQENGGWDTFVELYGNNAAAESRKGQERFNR

binding result: binds
B1: Biotin-tagged Bad (peptide)
peptide: Biotin-LWAAQRYGRELRRMSDEFEGSFKGL
notes: Bad peptide (BH3 stretch); also called Biotin-[residues removed]
